{"source": "paper PMC3684756", "about": "(MicrobiologyOpen, 2013)", "proteins": {"B1": {"name": "His-Lsm4^1–170 (domain or fragment)", "chain": "MLPLYLLTNAKGQQMQIELKNGEIIQGILTNVDNWMNLTLSNVTEYSEESAINSEDNAESSKAVKLNEIYIRGTFIKFIKLQDNIIDKVKQQINSNNNSNSNGPGHKRYYNNRDSNNNRGNYNRRNNNNGNSNRRPYSQNRQYNNSNSSNINNSINSINSNNQNMNNGLG"}}, "biological_target": "the molecule itself", "assay": "Thioflavin T amyloid formation assay"}
{"protein": "B1", "values": [{"measurement": "binding result", "value": "binds"}]}
